This series deals with the molecule itself. Briefly: X-ray crystal structure of the complex.

B1: P94S mutant F2F3 fragment of human CPSF30 (variant used in the X-ray crystal structure determination) (other)
chain: SGEKTVVCKHWLRGLCKKGDQCEFLHEYDMTKMSECYFYSKFGECSNKECPFLHIDPESKI
notes: also called F2F3 with Ser in place of Pro at position 94; F2F3-A; not shown: N-terminal hexaHis tag
In the case of B1, the binding result is recorded as “binds”.

The values above are taken from patent US20140308307A1 (University of Texas, published 2014).
